From PMC2275616
Several values for one entry are separate records, joined by “and”; a condition that tells them apart may be missing. Identical values can stand only once.

Molecular target: phosphocellulose-purified tubulin (bovine (endogenous in bovine brain)) (UniProt Q6B856)
Assay: native gel or EMSA

stoichiometry N: 4 and 6 and 8
Substance: phosphocellulose-purified tubulin (from UniProt Q6B856 1-445) (complex)
